Assay results taken from US20230002480A1.

Legend:
Assay in all cases: cell-based or functional assay
[1] = target: HIV-1 Env of pseudovirus 1006_11_C3_1601 (HIV-1)
[2] = target: HIV-1 Env of pseudovirus 1012_11_TC21_3257 (HIV-1)
[3] = target: HIV-1 Env of pseudovirus 1056_10_TA11_1826 (HIV-1)
[4] = target: HIV-1 Env of pseudovirus 191955_A11 (HIV-1)
[5] = target: HIV-1 Env of pseudovirus 249M B10 (HIV-1)
[6] = target: HIV-1 Env of pseudovirus 62357_14_D3_4589 (HIV-1)
[7] = target: HIV-1 Env of pseudovirus 6244_13_B5_4576 (HIV-1)
[8] = target: HIV-1 Env of pseudovirus CAP210.2.00.E8 (HIV-1)
[9] = target: HIV-1 Env of pseudovirus CAP45.2.00.G3 (HIV-1)
[10] = target: HIV-1 Env of pseudovirus CNE21 (HIV-1)
[11] = target: HIV-1 Env of pseudovirus CNE30 (HIV-1)
[12] = target: HIV-1 Env of pseudovirus CNE52 (HIV-1)
[13] = target: HIV-1 Env of pseudovirus CNE53 (HIV-1)
[14] = target: HIV-1 Env of pseudovirus Ce0393_C3 (HIV-1)
[15] = target: HIV-1 Env of pseudovirus Ce1176_A3 (HIV-1)
[16] = target: HIV-1 Env of pseudovirus Ce704809221_1B3 (HIV-1)
[17] = target: HIV-1 Env of pseudovirus HIV-0013095-2.11 (HIV-1)
[18] = target: HIV-1 Env of pseudovirus RHPA4259.7 (HIV-1)
[19] = target: HIV-1 Env of pseudovirus SC05_8C11_2344 (HIV-1)
[20] = target: HIV-1 Env of pseudovirus TRJO4551.58 (HIV-1)
[21] = target: HIV-1 Env of pseudovirus TRO.11 (HIV-1)
[22] = target: HIV-1 Env of pseudovirus ZM135M.PL10a (HIV-1)
[23] = target: HIV-1 Env of pseudovirus ZM214M.PL15 (HIV-1)
[24] = target: HIV-1 Env of pseudovirus ZM233M.PB6 (HIV-1)

10-1074 (antibody)
IC50, titer in TZM.bl cells [1]: 0.003 µg/mL
IC80, titer in TZM.bl cells [1]: 0.013 µg/mL
IC50, titer in TZM.bl cells [2]: 0.008 µg/mL
IC80, titer in TZM.bl cells [2]: 0.059 µg/mL
IC50, titer in TZM.bl cells [3]: 0.038 µg/mL
IC80, titer in TZM.bl cells [3]: 0.272 µg/mL
IC50, titer in TZM.bl cells [4]: > 50 µg/mL
IC80, titer in TZM.bl cells [4]: > 50 µg/mL
IC50, titer in TZM.bl cells [5]: > 50 µg/mL
IC80, titer in TZM.bl cells [5]: > 50 µg/mL
IC50, titer in TZM.bl cells [6]: > 50 µg/mL
IC80, titer in TZM.bl cells [6]: > 50 µg/mL
IC50, titer in TZM.bl cells [7]: 0.202 µg/mL
IC80, titer in TZM.bl cells [7]: 0.922 µg/mL
IC50, titer in TZM.bl cells [8]: > 50 µg/mL
IC80, titer in TZM.bl cells [8]: > 50 µg/mL
IC50, titer in TZM.bl cells [9]: > 50 µg/mL
IC80, titer in TZM.bl cells [9]: > 50 µg/mL
IC50, titer in TZM.bl cells [10]: 0.067 µg/mL
IC80, titer in TZM.bl cells [10]: 0.181 µg/mL
IC50, titer in TZM.bl cells [11]: 0.363 µg/mL
IC80, titer in TZM.bl cells [11]: 1.2 µg/mL
IC50, titer in TZM.bl cells [12]: 1.23 µg/mL
IC80, titer in TZM.bl cells [12]: 13.1 µg/mL
IC50, titer in TZM.bl cells [13]: 0.039 µg/mL
IC80, titer in TZM.bl cells [13]: 0.141 µg/mL
IC50, titer in TZM.bl cells [14]: > 50 µg/mL
IC80, titer in TZM.bl cells [14]: > 50 µg/mL
IC50, titer in TZM.bl cells [15]: 0.019 µg/mL
IC80, titer in TZM.bl cells [15]: 0.07 µg/mL
IC50, titer in TZM.bl cells [16]: 0.139 µg/mL
IC80, titer in TZM.bl cells [16]: 0.696 µg/mL
IC50, titer in TZM.bl cells [17]: > 50 µg/mL
IC80, titer in TZM.bl cells [17]: > 50 µg/mL
IC50, titer in TZM.bl cells [18]: 0.021 µg/mL
IC80, titer in TZM.bl cells [18]: 0.118 µg/mL
IC50, titer in TZM.bl cells [19]: 0.052 µg/mL
IC80, titer in TZM.bl cells [19]: 0.123 µg/mL
IC50, titer in TZM.bl cells [20]: 0.17 µg/mL
IC80, titer in TZM.bl cells [20]: 0.634 µg/mL
IC50, titer in TZM.bl cells [21]: 0.008 µg/mL
IC80, titer in TZM.bl cells [21]: 0.057 µg/mL
IC50, titer in TZM.bl cells [22]: 0.069 µg/mL
IC80, titer in TZM.bl cells [22]: 0.367 µg/mL
IC50, titer in TZM.bl cells [23]: 0.174 µg/mL
IC80, titer in TZM.bl cells [23]: 2.37 µg/mL
IC50, titer in TZM.bl cells [24]: 0.06 µg/mL
IC80, titer in TZM.bl cells [24]: 0.349 µg/mL

10E8 (antibody)
IC50, titer in TZM.bl cells [1]: 0.172 µg/mL
IC80, titer in TZM.bl cells [1]: 3 µg/mL
IC50, titer in TZM.bl cells [2]: 0.244 µg/mL
IC80, titer in TZM.bl cells [2]: 4.21 µg/mL
IC50, titer in TZM.bl cells [3]: 0.134 µg/mL
IC80, titer in TZM.bl cells [3]: 1.03 µg/mL
IC50, titer in TZM.bl cells [4]: 0.68 µg/mL
IC80, titer in TZM.bl cells [4]: 3.53 µg/mL
IC50, titer in TZM.bl cells [5]: 1.27 µg/mL
IC80, titer in TZM.bl cells [5]: 9.05 µg/mL
IC50, titer in TZM.bl cells [6]: 0.119 µg/mL
IC80, titer in TZM.bl cells [6]: 1.06 µg/mL
IC50, titer in TZM.bl cells [7]: 0.086 µg/mL
IC80, titer in TZM.bl cells [7]: 0.809 µg/mL
IC50, titer in TZM.bl cells [8]: 0.798 µg/mL
IC80, titer in TZM.bl cells [8]: 3.89 µg/mL
IC50, titer in TZM.bl cells [9]: 1.82 µg/mL
IC80, titer in TZM.bl cells [9]: > 10 µg/mL
IC50, titer in TZM.bl cells [10]: 1.9 µg/mL
IC80, titer in TZM.bl cells [10]: > 10 µg/mL
IC50, titer in TZM.bl cells [11]: 1.56 µg/mL
IC80, titer in TZM.bl cells [11]: 9.84 µg/mL
IC50, titer in TZM.bl cells [12]: 0.304 µg/mL
IC80, titer in TZM.bl cells [12]: 3.06 µg/mL
IC50, titer in TZM.bl cells [13]: 0.326 µg/mL
IC80, titer in TZM.bl cells [13]: 1.92 µg/mL
IC50, titer in TZM.bl cells [14]: 1.18 µg/mL
IC80, titer in TZM.bl cells [14]: 7.42 µg/mL
IC50, titer in TZM.bl cells [15]: 0.867 µg/mL
IC80, titer in TZM.bl cells [15]: 3.92 µg/mL
IC50, titer in TZM.bl cells [16]: 0.058 µg/mL
IC80, titer in TZM.bl cells [16]: 0.319 µg/mL
IC50, titer in TZM.bl cells [17]: 0.031 µg/mL
IC80, titer in TZM.bl cells [17]: 0.213 µg/mL
IC50, titer in TZM.bl cells [18]: 0.728 µg/mL
IC80, titer in TZM.bl cells [18]: 5.28 µg/mL
IC50, titer in TZM.bl cells [19]: 0.665 µg/mL
IC80, titer in TZM.bl cells [19]: 2.74 µg/mL
IC50, titer in TZM.bl cells [20]: 0.475 µg/mL
IC80, titer in TZM.bl cells [20]: 4.78 µg/mL
IC50, titer in TZM.bl cells [21]: 0.034 µg/mL
IC80, titer in TZM.bl cells [21]: 0.25 µg/mL
IC50, titer in TZM.bl cells [22]: 0.171 µg/mL
IC80, titer in TZM.bl cells [22]: 1.19 µg/mL
IC50, titer in TZM.bl cells [23]: 1.96 µg/mL
IC80, titer in TZM.bl cells [23]: > 10 µg/mL
IC50, titer in TZM.bl cells [24]: 0.442 µg/mL
IC80, titer in TZM.bl cells [24]: 2.39 µg/mL

N49P19 (antibody)
IC50 [1]: 0.4 µg/mL
IC80 [1]: 1.33 µg/mL
MPI [1]: 100
IC50 [2]: 0.204 µg/mL
IC80 [2]: 0.895 µg/mL
MPI [2]: 100
IC50 [3]: 0.925 µg/mL
IC80 [3]: 3.15 µg/mL
MPI [3]: 100
IC50 [5]: > 50 µg/mL
IC80 [5]: > 50 µg/mL
MPI [5]: 39
IC50 [6]: 37.4 µg/mL
IC80 [6]: > 50 µg/mL
MPI [6]: 51
IC50 [7]: 0.571 µg/mL
IC80 [7]: 1.82 µg/mL
MPI [7]: 100
IC50 [8]: > 50 µg/mL
IC80 [8]: > 50 µg/mL
MPI [8]: 0
IC50 [9]: > 50 µg/mL
IC80 [9]: > 50 µg/mL
MPI [9]: 5
IC50 [10]: > 50 µg/mL
IC80 [10]: > 50 µg/mL
MPI [10]: 21
IC50 [11]: 1.27 µg/mL
IC80 [11]: 4.28 µg/mL
MPI [11]: 100
IC50 [12]: 0.175 µg/mL
IC80 [12]: 0.491 µg/mL
MPI [12]: 100
IC50 [13]: 1.5 µg/mL
IC80 [13]: > 50 µg/mL
MPI [13]: 78
IC50 [14]: > 50 µg/mL
IC80 [14]: > 50 µg/mL
MPI [14]: 31
IC50 [15]: 1.57 µg/mL
IC80 [15]: 9.84 µg/mL
MPI [15]: 99
IC50 [16]: 3.75 µg/mL
IC80 [16]: 19.2 µg/mL
MPI [16]: 93
IC50 [17]: > 50 µg/mL
IC80 [17]: > 50 µg/mL
MPI [17]: 18
IC50 [18]: > 50 µg/mL
IC80 [18]: > 50 µg/mL
MPI [18]: 42
IC50 [19]: 0.954 µg/mL
IC80 [19]: 3.3 µg/mL
MPI [19]: 100
IC50 [20]: 1.23 µg/mL
IC80 [20]: 5.4 µg/mL
MPI [20]: 99
IC50 [21]: 0.394 µg/mL
IC80 [21]: 1.3 µg/mL
MPI [21]: 100
IC50 [22]: > 50 µg/mL
IC80 [22]: > 50 µg/mL
MPI [22]: 0
IC50 [23]: 1.85 µg/mL
IC80 [23]: 14.8 µg/mL
MPI [23]: 98
IC50 [24]: > 50 µg/mL
IC80 [24]: > 50 µg/mL
MPI [24]: 4
